Assay results taken from patent US20260055188A1 (SHENGHE CHINA BIOPHARMACEUTICAL, published 2026).

Columns and labels:
[1] = molecular target: T1, Human-TNFR2-His (manufacturer: SINO, CAT: 10417-H08H) (human, UniProt P20333 23-257); test: ELISA: Human-TNFR2-His coated (0.3 µg/mL), antibody titrated, goat anti-human IgG Fc detection, OD450 (Example 2)
T1 construct: Bought protein; also called human TNFR2 protein; TNFR2 protein; not shown: His tag
T1 sequence (looked up): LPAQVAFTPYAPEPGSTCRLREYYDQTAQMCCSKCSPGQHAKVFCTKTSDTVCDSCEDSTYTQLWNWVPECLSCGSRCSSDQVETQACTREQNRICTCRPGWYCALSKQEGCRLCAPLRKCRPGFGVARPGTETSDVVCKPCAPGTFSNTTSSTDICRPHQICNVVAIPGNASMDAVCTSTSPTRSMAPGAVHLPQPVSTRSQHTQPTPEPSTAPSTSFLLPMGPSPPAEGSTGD
Procedure: Human-TNFR2-His (manufacturer: SINO, CAT: 10417-H08H, LOT: LC15NO0412) was diluted to 0.3 μg/mL with a coating solution (1×PBS, pH7.4), and coated into a 96-well ELISA plate at 100 μL/well overnight at 4° C. The coating solution was poured off. Each well was washed with 1×PBST at 300 μL, washed 4 times with a plate washer, and patted dry on a flat paper. It was blocked with 3% skim milk powder at 300 μL/well, and incubated at 37° C. for 1 h. The blocking solution was poured off, washed 4 times with a plate washer, and patted dry on a flat paper. Negative control and positive control were set up. […] The positive control and antibody were diluted to 10 μg/mL with 3% skim milk powder as the starting concentration, and then diluted by 3-fold gradient (11 gradients in total). A blank well was set up and only the diluent was added. It was incubated at 37° C. for 1 h at 100 μL/well. The liquid in the well was discarded, washed 4 times with a plate washer, and patted dry on a flat paper. Goat anti-human IgG Fc was diluted with 3% skim milk powder at 1:20000, and incubated at 37° C. for 1 h at 100 μL/well. It was washed 6 times with a plate washer, and patted dry on a flat paper. TMB color developing solution was added at 100 μL/well, and wrapped with aluminum foil. Color development was performed at 37° C. in the dark for 8 min. Termination solution 1M HCl was added to terminate the color development reaction at 100 μL/well. Readings were taken at 450 nm on an ELISA reader.

[2] = molecular target: T2, Human-B7H3 His (manufacturer: Acro, CAT: TB73-H52E2) (human, UniProt Q5ZPR3-2 29-245); test: ELISA: Human-B7H3 His coated (0.3 µg/mL), antibody titrated, goat anti-human IgG Fc detection, OD450 (Example 3)
T2 construct: also called human B7H3 protein; B7H3 protein; not shown: His tag
T2 sequence (looked up): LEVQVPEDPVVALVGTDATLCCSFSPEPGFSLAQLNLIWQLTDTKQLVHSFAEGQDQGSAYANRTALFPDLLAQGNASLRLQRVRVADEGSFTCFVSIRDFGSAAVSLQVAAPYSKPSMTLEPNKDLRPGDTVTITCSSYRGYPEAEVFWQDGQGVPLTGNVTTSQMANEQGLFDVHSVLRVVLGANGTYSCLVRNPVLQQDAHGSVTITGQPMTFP
Procedure: Human-B7H3 His (manufacturer: Acro, CAT: TB73-H52E2, LOT: 2052-21AXF1-YS) was diluted to 0.3 μg/mL with a coating solution (1×PBS, pH7.4), and coated into a 96-well ELISA plate at 100 μL/well overnight at 4° C. The coating solution was poured off. Each well was washed with 1×PBST at 300 μL, washed 4 times with a plate washer, and patted dry on a flat paper. It was blocked with 3% skim milk powder at 300 μL/well, and incubated at 37° C. for 1 h. The blocking solution was poured off, washed 4 times with a plate washer, and patted dry on a flat paper. Negative control and positive control were set up. […] The variable region of the antibody sequence of the positive control consists of SEQ ID NO: 1 and SEQ ID NO: 5, with the constant region of human IgG1 added (SEQ ID NO: 85 and SEQ ID NO: 86). The positive control and antibody were diluted to 10 μg/mL with 3% skim milk powder as the starting concentration, and then diluted by 3-fold gradient (11 gradients in total). A blank well was set up and only the diluent was added. It was incubated at 37° C. for 1 h at 100 μL/well. The liquid in the well was discarded, washed 4 times with a plate washer, and patted dry on a flat paper. Goat anti-human IgG Fc was diluted with 3% skim milk powder at 1:20000, and incubated at 37° C. for 1 h at 100 μL/well. It was washed 6 times with a plate washer, and patted dry on a flat paper. TMB color developing solution was added at 100 μL/well, and wrapped with aluminum foil. Color development was performed at 37° C. in the dark for 8 min. Termination solution 1M HCl was added to terminate the color development reaction at 100 μL/well. Readings were taken at 450 nm on an ELISA reader.

[3] = molecular target: T2, Human-B7H3 His (manufacturer: Acro, …); test: BLI, antibody on AHC sensor, 100 nM His-tagged protein (Acro TB73-H52E2) in solution
[4] = molecular target: T1, Human-TNFR2-His (manufacturer: SINO, …); test: BLI, antibody on AHC sensor, 100 nM human-TNFR2-His in solution
Procedure: The AHC sensor was soaked in 0.02% PBST (0.02% Tween 20, pH 7.4, 1×PBS) as a buffer for 600 s to remove the sucrose covering the sensor surface. The AHC sensor was equilibrated with 0.02% PBST (0.02% Tween 20, pH 7.4, 1×PBS) as a buffer for 60 s, the antibody in the sample plate was solidified for 300 s, and the secondary equilibration buffer was used for 180 s. 100 nM human-TNFR2-His (manufacturer: SINO, CAT: 10417-H08H, LOT: LC12SE2902) protein was bound to the antibody for 300 s and then dissociated for 600 s. After dissociation, 10 mM glycine (pH 2.0) was used as a regeneration buffer for 30 s. The sensor was regenerated with 10 mM glycine (pH 2.0).

Binder	binding result [1]	EC50 (read off the curve) [2]	Kd [3]	koff [3]	kon [3]	Kd [4]	koff [4]	kon [4]
TB-A2 (bispecific antibody, human IgG4 S228P, kappa, also called antibody TB-A2) light: DIVMTQSPATLSVTPGDRVSLSCRASQSISDYLHWYQQKSHESPRLLIKYASQSISGIPSRFSGSGSGSDFTLSINSVEPEDVGVYYCQNGHSFPLTFGAGTKLELKRTVAAPSVFIFPPSDEQLKSGTASVVCLLNNFYPREAKVQWKVDNALQSGNSQESVTEQDSKDSTYSLSSTLTLSKADYEKHKVYACEVTHQGLSSPVTKSFNRGEC heavy: not shown	binds	~0.7 nM	–	–	–	–	–	–
TB-D1 (bispecific antibody, human IgG1, kappa, also called antibody TB-D1) light: DIVMTQSPATLSVTPGDRVSLSCRASQSISDYLHWYQQKSHESPRLLIKYASQSISGIPSRFSGSGSGSDFTLSINSVEPEDVGVYYCQNGHSFPLTFGAGTKLELKRTVAAPSVFIFPPSDEQLKSGTASVVCLLNNFYPREAKVQWKVDNALQSGNSQESVTEQDSKDSTYSLSSTLTLSKADYEKHKVYACEVTHQGLSSPVTKSFNRGEC heavy: not shown	–	~0.2 µg/mL	9.45 nM	0.000311 s⁻¹	33000 M⁻¹ s⁻¹	1.35 nM	0.000531 s⁻¹	394000 M⁻¹ s⁻¹
TB-A1 (bispecific antibody, human IgG1, kappa, also called antibody TB-A1) light: DIVMTQSPATLSVTPGDRVSLSCRASQSISDYLHWYQQKSHESPRLLIKYASQSISGIPSRFSGSGSGSDFTLSINSVEPEDVGVYYCQNGHSFPLTFGAGTKLELKRTVAAPSVFIFPPSDEQLKSGTASVVCLLNNFYPREAKVQWKVDNALQSGNSQESVTEQDSKDSTYSLSSTLTLSKADYEKHKVYACEVTHQGLSSPVTKSFNRGEC heavy: not shown	–	–	22 nM	0.000894 s⁻¹	40700 M⁻¹ s⁻¹	0.234 nM	5.22e-05 s⁻¹	223000 M⁻¹ s⁻¹

Second part, the binder after the results:

binding result [1]	EC50 (read off the curve) [2]	Kd [3]	koff [3]	kon [3]	Kd [4]	koff [4]	kon [4]	Binder
binds	~0.2 µg/mL	–	–	–	–	–	–	TB-B (bispecific antibody, human IgG1, kappa, also called antibody TB-B) light: DIVMTQSPATLSVTPGDRVSLSCRASQSISDYLHWYQQKSHESPRLLIKYASQSISGIPSRFSGSGSGSDFTLSINSVEPEDVGVYYCQNGHSFPLTFGAGTKLELKRTVAAPSVFIFPPSDEQLKSGTASVVCLLNNFYPREAKVQWKVDNALQSGNSQESVTEQDSKDSTYSLSSTLTLSKADYEKHKVYACEVTHQGLSSPVTKSFNRGEC heavy: not shown
binds	–	–	–	–	–	–	–	TB-E (bispecific antibody, human IgG1, kappa, also called antibody TB-E) light: DIVMTQSPATLSVTPGDRVSLSCRASQSISDYLHWYQQKSHESPRLLIKYASQSISGIPSRFSGSGSGSDFTLSINSVEPEDVGVYYCQNGHSFPLTFGAGTKLELKRTVAAPSVFIFPPSDEQLKSGTASVVCLLNNFYPREAKVQWKVDNALQSGNSQESVTEQDSKDSTYSLSSTLTLSKADYEKHKVYACEVTHQGLSSPVTKSFNRGECGGGGSGGGGSEVQLVQSGAEVKKPGATVKISCKVSGYSITDYLLHWVQQAPGKCLEWMGWIDPEDAKTKYGQKFQSRVTITADTSTDTAYMELSSLRSEDTAVYYCAANSGTGTMDAWGQGTLVTVSSGGGGSGGGGSGGGGSDIVMTQSPATLSVSPGERATLSCKASQNVGSNVDWYQQKPGQSPRVLIYKASIRYTGIPARFSGSGSGTEFTLTISILQSEDFAVYFCMQSKSYPITFGCGTKLEIK heavy: not shown
